From patent publication US20160185853A1 (UNIVERSITY OF SOUTHERN CALIFORNIA, published 2016) come the findings set out here.

As a reminder, the Kd is the concentration at which binding is half-saturated. The low end stands for a tighter complex, the high end for a looser complex.

For assay [1], the target named is T1, GRP78-His (human GRP78 amino acids 1-650, without KDEL motif, hexahistidine tag on C-terminus) (human, UniProt P11021 19-650).
T1 construct: also called GRP78-His polypeptide
The assay is described as follows: competition ELISA on GRP78-His; dilution series of unlabelled antibody against a fixed concentration of biotinylated murine MAb159 [panel A]. (An ELISA detects its analyte on a solid surface through an enzyme-linked reagent.)

For another assay, the target named is T2, human GRP78 (human, UniProt P11021 19-654).
T2 construct: also called BiP/HSPA5; antigen
The assay is described as follows: Scatchard assay.

The next assay has as its target T3, HSP70 (UniProt P0DMV8 2-641).
T3 construct: also called GRP78's closest paralogue
The assay is described as follows: Western blot of MCF7 whole cell lysates.

The next assay deals with T4, mouse GRP78 (mouse, UniProt P20029 20-655).
T4 construct: Denatured protein on an immunoblot; also called GRP78 protein band in mouse embryo fibroblast (MEF) lysates
As to the kind of experiment: immunoblot of MEF lysates; band absent after deletion of Grp78. A general note: In western blotting, separated proteins are transferred to a membrane and probed.

Assay [2] addresses T5, Flag tagged GRP78 (without KDEL) (human, UniProt P11021 19-650, surface biotinylated with Sulfo-NHS-LC-Biotin).
T5 construct: also called surface GRP78 (overexpressed); not shown: Flag tag
As to the kind of experiment: surface biotinylation, avidin purification, anti-Flag immunoprecipitation, Western blot (293T cells).

B1: humanized MAb159 (antibody, V domains shown)
VH: QAQLVQSGAEVKKPGASVKVSCKASGYTFTSYWMHWVRQAPGQGLEWIGEINPGNGRTNYNEKFKRRVTITVDKSASTAYMELSSLRSEDTAVYYCATLYYYDGTYDYWGQGTTVTVSS
VL: DIVMTQSPSFLSASVGDRVTITCKASQNVGTDVAWYQQKPGKAPKALIYWASNRFTGVPDRFTGSGSGTDFTLTISSLQSEDVADYFCQQYSSSPWTFGGGTKVEIK
notes: It carries a human Fc (detected with a human Fc specific antibody)
With B1, the binding result in assay [1] is on record as “binds”.

B2: MAb159 (murine monoclonal antibody) (antibody, V domains shown)
VH: QAQLQQPGAELVKPGASVRLSCKASGYTFTSYWMHWVKQRPGQGLEWIGEINPGNGRTNYNEKFKRKATLTVDKSSSTAYMQLNSLTSEDSAVYYCATLYYYDGTYDYWGQGTTLTVSS
VL: DIVMTQSHKFMSTSVGDRVSVTCKASQNVGTDVAWYQQKPGQSPKALIYWASNRFTGVPDRFTGSGSGTDFTLTINNVQSEDLVDYFCQQYSSSPWTFGGGTKLEIK
notes: Whole murine monoclonal antibody from a hybridoma, purified on protein G; also called murine MAb159; parental murine antibody
In the assay with human GRP78, B2 had a Kd of 1.7 nM. Moreover, the results for the binding result with HSP70 and with mouse GRP78 were “no binding (tested: 1 µg/ml primary antibody)” and “binds”, respectively.

B3: ERK1 (enzyme, UniProt P27361 2-379, looked up)
chain: AAAAAQGGGGGEPRRTEGVGPGVPGEVEMVKGQPFDVGPRYTQLQYIGEGAYGMVSSAYDHVRKTRVAIKKISPFEHQTYCQRTLREIQILLRFRHENVIGIRDILRASTLEAMRDVYIVQDLMETDLYKLLKSQQLSNDHICYFLYQILRGLKYIHSANVLHRDLKPSNLLINTTCDLKICDFGLARIADPEHDHTGFLTEYVATRWYRAPEIMLNSKGYTKSIDIWSVGCILAEMLSNRPIFPGKHYLDQLNHILGILGSPSQEDLNCIINMKARNYLQSLPSKTKVAWAKLFPKSDSKALDLLDRMLTFNPNKRITVEEALAHPYLEQYYDPTDEPVAEEPFTFAMELDDLPKERLKELIFQETARFQPGVLEAP
notes: Printed only as ERK1/2; also called ERK1/2; Erk1/2
On to B3, for which the binding result in assay [2] is reported as “no binding”.
